Measurements: patent publication US20130005646A1 (Novo Nordisk, published 2013)
Starred links: 1 amine or outer side, 2 acyl side, 3 side chain; linkers in the order of their positions; H or OH if unused. Positions of bridges follow the written chain, without caps; N, C: chain ends. Groups on a side chain read outwards from the residue. No end group written: not given here. *: point of attachment. C20 diacid = O=C(O)CCCCCCCCCCCCCCCCCCC(=O)*; γGlu = O=C(O)[C@H](CCC(=O)[*:2])N[*:1]; AEEA = NCCOCCOCC(=O)O

T1: human amylin 3(a) receptor (human calcitonin receptor + RAMP-3) (human, UniProt P30988 25-474; O60896 24-148)
T1 sequence (looked up) 1: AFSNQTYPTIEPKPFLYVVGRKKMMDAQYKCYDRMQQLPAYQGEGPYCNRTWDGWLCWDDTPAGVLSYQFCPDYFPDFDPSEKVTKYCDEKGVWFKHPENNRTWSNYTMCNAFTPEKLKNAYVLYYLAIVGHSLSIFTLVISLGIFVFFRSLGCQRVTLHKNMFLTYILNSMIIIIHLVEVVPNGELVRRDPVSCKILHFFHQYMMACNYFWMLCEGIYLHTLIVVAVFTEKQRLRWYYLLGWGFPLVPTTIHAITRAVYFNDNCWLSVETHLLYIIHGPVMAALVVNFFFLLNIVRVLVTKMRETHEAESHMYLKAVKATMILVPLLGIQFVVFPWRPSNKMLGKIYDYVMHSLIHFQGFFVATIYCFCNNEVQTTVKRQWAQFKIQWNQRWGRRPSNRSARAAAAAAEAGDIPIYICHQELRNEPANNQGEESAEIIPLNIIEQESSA
T1 sequence (looked up) 2: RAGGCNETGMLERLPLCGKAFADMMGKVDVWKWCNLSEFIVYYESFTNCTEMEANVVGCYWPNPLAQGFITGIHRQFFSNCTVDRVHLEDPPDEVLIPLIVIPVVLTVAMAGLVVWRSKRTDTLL

T2: human calcitonin (a) receptor (human, UniProt P30988 25-474)
T2 sequence (looked up): T1 sequence (looked up) 1

B1: N-alpha-[(S)-4-Carboxy-4-(19-carboxynonadecanoylamino)butyryl]-[Glu14,His17,Gln21,Gln35,Pro37]-pramlintide (peptide)
peptide: {C20 diacid-γGlu}-KCNTATCATQRLAEFLHHSSQNFGPILPPTNVGSQTP-NH2
modifications: disulfide 2-7
SMILES: CC[C@H](C)[C@H](NC(=O)[C@@H]1CCCN1C(=O)CNC(=O)[C@H](Cc1ccccc1)NC(=O)[C@H](CC(N)=O)NC(=O)[C@H](CCC(N)=O)NC(=O)[C@H](CO)NC(=O)[C@H](CO)NC(=O)[C@H](Cc1c[nH]cn1)NC(=O)[C@H](Cc1c[nH]cn1)NC(=O)[C@H](CC(C)C)NC(=O)[C@H](Cc1ccccc1)NC(=O)[C@H](CCC(=O)O)NC(=O)[C@H](C)NC(=O)[C@H](CC(C)C)NC(=O)[C@H](CCCNC(=N)N)NC(=O)[C@H](CCC(N)=O)NC(=O)[C@@H](NC(=O)[C@H](C)NC(=O)[C@@H]1CSSC[C@H](NC(=O)[C@H](CCCCN)NC(=O)CC[C@H](NC(=O)CCCCCCCCCCCCCCCCCCC(=O)O)C(=O)O)C(=O)N[C@@H](CC(N)=O)C(=O)N[C@@H]([C@@H](C)O)C(=O)N[C@@H](C)C(=O)N[C@@H]([C@@H](C)O)C(=O)N1)[C@@H](C)O)C(=O)N[C@@H](CC(C)C)C(=O)N1CCC[C@H]1C(=O)N1CCC[C@H]1C(=O)N[C@H](C(=O)N[C@@H](CC(N)=O)C(=O)N[C@H](C(=O)NCC(=O)N[C@@H](CO)C(=O)N[C@@H](CCC(N)=O)C(=O)N[C@H](C(=O)N1CCC[C@H]1C(N)=O)[C@@H](C)O)C(C)C)[C@@H](C)O
B2: N-alpha-[(S)-4-Carboxy-4-(19-carboxynonadecanoylamino)butyryl]-[Gly1,Glu14,His17,Gln21,Gln35,Pro37]-pramlintide (peptide)
peptide: {C20 diacid-γGlu}-GCNTATCATQRLAEFLHHSSQNFGPILPPTNVGSQTP-NH2
modifications: disulfide 2-7
SMILES: CC[C@H](C)[C@H](NC(=O)[C@@H]1CCCN1C(=O)CNC(=O)[C@H](Cc1ccccc1)NC(=O)[C@H](CC(N)=O)NC(=O)[C@H](CCC(N)=O)NC(=O)[C@H](CO)NC(=O)[C@H](CO)NC(=O)[C@H](Cc1c[nH]cn1)NC(=O)[C@H](Cc1c[nH]cn1)NC(=O)[C@H](CC(C)C)NC(=O)[C@H](Cc1ccccc1)NC(=O)[C@H](CCC(=O)O)NC(=O)[C@H](C)NC(=O)[C@H](CC(C)C)NC(=O)[C@H](CCCNC(=N)N)NC(=O)[C@H](CCC(N)=O)NC(=O)[C@@H](NC(=O)[C@H](C)NC(=O)[C@@H]1CSSC[C@H](NC(=O)CNC(=O)CC[C@H](NC(=O)CCCCCCCCCCCCCCCCCCC(=O)O)C(=O)O)C(=O)N[C@@H](CC(N)=O)C(=O)N[C@@H]([C@@H](C)O)C(=O)N[C@@H](C)C(=O)N[C@@H]([C@@H](C)O)C(=O)N1)[C@@H](C)O)C(=O)N[C@@H](CC(C)C)C(=O)N1CCC[C@H]1C(=O)N1CCC[C@H]1C(=O)N[C@H](C(=O)N[C@@H](CC(N)=O)C(=O)N[C@H](C(=O)NCC(=O)N[C@@H](CO)C(=O)N[C@@H](CCC(N)=O)C(=O)N[C@H](C(=O)N1CCC[C@H]1C(N)=O)[C@@H](C)O)C(C)C)[C@@H](C)O
B3: N-alpha-[(S)-4-Carboxy-4-(19-carboxynonadecanoylamino)butyryl]-[Glu14,His17,Gln35,Pro37]-pramlintide (peptide)
peptide: {C20 diacid-γGlu}-KCNTATCATQRLAEFLHHSSNNFGPILPPTNVGSQTP-NH2
modifications: disulfide 2-7
SMILES: CC[C@H](C)[C@H](NC(=O)[C@@H]1CCCN1C(=O)CNC(=O)[C@H](Cc1ccccc1)NC(=O)[C@H](CC(N)=O)NC(=O)[C@H](CC(N)=O)NC(=O)[C@H](CO)NC(=O)[C@H](CO)NC(=O)[C@H](Cc1c[nH]cn1)NC(=O)[C@H](Cc1c[nH]cn1)NC(=O)[C@H](CC(C)C)NC(=O)[C@H](Cc1ccccc1)NC(=O)[C@H](CCC(=O)O)NC(=O)[C@H](C)NC(=O)[C@H](CC(C)C)NC(=O)[C@H](CCCNC(=N)N)NC(=O)[C@H](CCC(N)=O)NC(=O)[C@@H](NC(=O)[C@H](C)NC(=O)[C@@H]1CSSC[C@H](NC(=O)[C@H](CCCCN)NC(=O)CC[C@H](NC(=O)CCCCCCCCCCCCCCCCCCC(=O)O)C(=O)O)C(=O)N[C@@H](CC(N)=O)C(=O)N[C@@H]([C@@H](C)O)C(=O)N[C@@H](C)C(=O)N[C@@H]([C@@H](C)O)C(=O)N1)[C@@H](C)O)C(=O)N[C@@H](CC(C)C)C(=O)N1CCC[C@H]1C(=O)N1CCC[C@H]1C(=O)N[C@H](C(=O)N[C@@H](CC(N)=O)C(=O)N[C@H](C(=O)NCC(=O)N[C@@H](CO)C(=O)N[C@@H](CCC(N)=O)C(=O)N[C@H](C(=O)N1CCC[C@H]1C(N)=O)[C@@H](C)O)C(C)C)[C@@H](C)O
B4: N-alpha-[(S)-4-Carboxy-4-(19-carboxynonadecanoylamino)butyryl]-[Glu14,Gln21,Gln35,Pro37]-pramlintide (peptide)
peptide: {C20 diacid-γGlu}-KCNTATCATQRLAEFLVHSSQNFGPILPPTNVGSQTP-NH2
modifications: disulfide 2-7
SMILES: CC[C@H](C)[C@H](NC(=O)[C@@H]1CCCN1C(=O)CNC(=O)[C@H](Cc1ccccc1)NC(=O)[C@H](CC(N)=O)NC(=O)[C@H](CCC(N)=O)NC(=O)[C@H](CO)NC(=O)[C@H](CO)NC(=O)[C@H](Cc1c[nH]cn1)NC(=O)[C@@H](NC(=O)[C@H](CC(C)C)NC(=O)[C@H](Cc1ccccc1)NC(=O)[C@H](CCC(=O)O)NC(=O)[C@H](C)NC(=O)[C@H](CC(C)C)NC(=O)[C@H](CCCNC(=N)N)NC(=O)[C@H](CCC(N)=O)NC(=O)[C@@H](NC(=O)[C@H](C)NC(=O)[C@@H]1CSSC[C@H](NC(=O)[C@H](CCCCN)NC(=O)CC[C@H](NC(=O)CCCCCCCCCCCCCCCCCCC(=O)O)C(=O)O)C(=O)N[C@@H](CC(N)=O)C(=O)N[C@@H]([C@@H](C)O)C(=O)N[C@@H](C)C(=O)N[C@@H]([C@@H](C)O)C(=O)N1)[C@@H](C)O)C(C)C)C(=O)N[C@@H](CC(C)C)C(=O)N1CCC[C@H]1C(=O)N1CCC[C@H]1C(=O)N[C@H](C(=O)N[C@@H](CC(N)=O)C(=O)N[C@H](C(=O)NCC(=O)N[C@@H](CO)C(=O)N[C@@H](CCC(N)=O)C(=O)N[C@H](C(=O)N1CCC[C@H]1C(N)=O)[C@@H](C)O)C(C)C)[C@@H](C)O
B5: N-alpha-[(S)-4-Carboxy-4-(19-carboxynonadecanoylamino)butyryl]-[Glu1,Glu14,Gln21,Gln35,Pro37]-pramlintide (peptide)
peptide: {C20 diacid-γGlu}-ECNTATCATQRLAEFLVHSSQNFGPILPPTNVGSQTP-NH2
modifications: disulfide 2-7
SMILES: CC[C@H](C)[C@H](NC(=O)[C@@H]1CCCN1C(=O)CNC(=O)[C@H](Cc1ccccc1)NC(=O)[C@H](CC(N)=O)NC(=O)[C@H](CCC(N)=O)NC(=O)[C@H](CO)NC(=O)[C@H](CO)NC(=O)[C@H](Cc1c[nH]cn1)NC(=O)[C@@H](NC(=O)[C@H](CC(C)C)NC(=O)[C@H](Cc1ccccc1)NC(=O)[C@H](CCC(=O)O)NC(=O)[C@H](C)NC(=O)[C@H](CC(C)C)NC(=O)[C@H](CCCNC(=N)N)NC(=O)[C@H](CCC(N)=O)NC(=O)[C@@H](NC(=O)[C@H](C)NC(=O)[C@@H]1CSSC[C@H](NC(=O)[C@H](CCC(=O)O)NC(=O)CC[C@H](NC(=O)CCCCCCCCCCCCCCCCCCC(=O)O)C(=O)O)C(=O)N[C@@H](CC(N)=O)C(=O)N[C@@H]([C@@H](C)O)C(=O)N[C@@H](C)C(=O)N[C@@H]([C@@H](C)O)C(=O)N1)[C@@H](C)O)C(C)C)C(=O)N[C@@H](CC(C)C)C(=O)N1CCC[C@H]1C(=O)N1CCC[C@H]1C(=O)N[C@H](C(=O)N[C@@H](CC(N)=O)C(=O)N[C@H](C(=O)NCC(=O)N[C@@H](CO)C(=O)N[C@@H](CCC(N)=O)C(=O)N[C@H](C(=O)N1CCC[C@H]1C(N)=O)[C@@H](C)O)C(C)C)[C@@H](C)O

Target: T1, human amylin 3(a) receptor (human …)
Experiment: cell-based or functional assay

Row | Binder | Amylin receptor human EC50
1 | B1 | 0.091 nM
2 | B2 | 0.12 nM
3 | B3 | 0.103 nM
4 | B4 | 0.107 nM
5 | B5 | 1.51 nM
6 | KCNTATCATQRLANFLHHSSNNFGK([AEEA-AEEA-γGlu-19‑carboxyheptadecanoyl])ILSSTNVGSHTY-NH2 (disulfide 2-7) | 0.199 nM

Target: T2, human calcitonin (a) receptor
Experiment: cell-based or functional assay

Row | Binder | CTa receptor human EC50
7 | B1 | 0.045 nM
8 | B2 | 0.072 nM
9 | B3 | 0.097 nM
10 | B4 | 0.0585 nM
11 | B5 | 0.496 nM
12 | KCNTATCATQRLANFLHHSSNNFGK([AEEA-AEEA-γGlu-19‑carboxyheptadecanoyl])ILSSTNVGSHTY-NH2 (disulfide 2-7) | 0.114 nM
